Reference: the supplement of paper PMC10567573

B1: LCOR (parent)
chain: PCAGSTSLSHSPGCSSTQGNGRPG

Variants of: B1
Assay: protein stability index of a GFP-peptide fusion (GPS, HEK-293T) (PSI 1-6); higher = more stable
Conditions: c terminus: a fixed tail appended
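Further: lentivirally expressed fusions sorted by FACS into six bins by GFP to DsRed ratio, PSI derived from sequencing read proportions per bin multiplied by bin number.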

Protein stability index: each site, then its substitutions
C2: L 4.76; N 4.74; Q 4.65; R 5.27; S 3.28; T 3.63; V 4.04; W 4.09; Y 3.55
A3: C 4.78; D 4.98; E 2.77; G 3.4; H 4; I 4.1; K 4.69; L 3.93; M 3.63; Q 4.08; S 3.73; T 3.06; V 3.87; Y 3.21
G4: A 2.7; E 4.2; F 1.98; H 3.52; I 2.28; K 4.38; L 2.43; M 2.92; P 4.17; Q 4.2; R 4.25; S 3.56; T 3.71
S5: A 2.98; D 4.27; E 3.94; F 3.35; G 4.2; I 1.61; K 4.35; M 2.9; N 2.67; P 2.15; R 2.71; T 1.75; W 3.35; Y 2.41
T6: D 4.35; E 5.02; F 2.91; H 3.11; K 2.71; P 3.69; R 4.93; S 2.77; V 3.9; W 2.84; Y 3.39
S7: A 2.19; D 4.82; F 2.72; H 2.42; I 1.92; K 4; L 1.64; M 1.82; N 3.43; Q 3.23; T 3.19; W 3.05; Y 2.87
L8: C 4.55; E 4.45; F 3.91; G 4.25; I 3.67; K 4.34; N 4.15; P 4.24; R 3.87; T 4.15; V 3.58; Y 4.95
S9: D 4.12; E 3.85; F 2.4; G 2.85; H 2.36; K 3.62; M 3.48; P 3.79; Q 3.48; R 1.04; T 3; W 2.66; Y 1.89
H10: A 4.02; C 2.72; D 4.89; E 5.05; I 3.89; K 4.86; L 4.39; P 3.37; Q 4.94; R 3.41; S 4.29; T 4.4; Y 4.3
S11: A 2.63; C 1.94; D 4; E 3.73; F 3.1; G 2.96; H 3.3; I 2.18; K 2.81; M 3.28; N 2.75; P 3.16; Q 3.27; R 2.53; V 2.86; W 2.74; Y 2.9
P12: A 3.99; C 1.01; D 4.35; E 4.43; F 1.91; G 4.15; H 3.9; I 2.73; K 3.86; L 3.23; M 3.12; N 4.11; Q 3.02; R 2.92; S 3.55; T 4.1; V 3.15; Y 3.39
G13: C 1.44; D 3.23; F 2.93; H 3.46; K 3.39; M 2.56; N 3.61; Q 2.56; R 3.6; S 3.46; T 2.72; Y 2.53
C14: A 4.12; E 4.9; F 4.71; G 5.25; H 4.93; K 5.01; L 4.34; M 4.53; P 4.48; Q 5.14; R 3.86; S 5.88; T 4.93; V 4.85; Y 3.83
S15: A 2.91; D 4.31; E 3.55; F 2.83; G 2.49; H 2.4; I 2.8; K 2.39; L 3.36; M 2.95; Q 2.79; V 3.3; W 2.85; Y 2.92
S16: A 3; D 4.05; E 3.18; F 2.87; G 3.74; H 2.21; I 2.07; K 3.37; L 1.6; M 2.22; N 3.53; P 4.1; Q 3.03; R 4.34; Y 2.02
T17: A 3.08; C 1.47; E 3.47; F 1.81; H 3.36; I 2.02; K 3.44; M 2.17; N 2.29; P 3.51; S 2.53; V 1.75; W 1.89; Y 2.28
Q18: C 2.73; D 2.98; E 3.34; F 2.27; G 3.53; I 2.48; K 3.77; M 3.01; N 3.51; P 2.89; R 3.01; S 3.55; T 3.37; V 2.5; Y 2.75
G19: A 3.65; C 2.56; D 3.91; E 3.8; F 3.15; H 2.32; I 2.9; K 3.48; L 2.91; M 2.88; N 2.94; P 3.31; Q 3.64; R 2.32; S 3.84; T 3.24; V 3.19; W 1.91; Y 2.5
N20: A 4.09; D 3.44; E 2.88; F 2.66; H 2.79; I 2.19; L 2.91; M 2.83; P 2.51; R 3.07; S 3.1; T 2.35; V 3.58
G21: A 3.63; C 2.85; D 3.95; E 3.96; F 1.98; H 2.31; I 3.54; K 3.79; N 3.57; P 2.53; Q 3.36; R 3.29; S 2.81; T 2.1; W 2.34; Y 2.92
R22: A 4.1; C 3.92; D 4.3; E 4.55; F 3.37; G 3.06; H 3.96; I 3.97; K 4.23; L 2.47; M 3.78; N 4.2; P 3.83; Q 3.98; S 5.07; T 3.46; W 2.55; Y 4.14
P23: A 3.78; C 3.45; D 4.15; E 3.39; F 2.46; H 3.88; I 3.02; K 3.78; L 3.24; M 2.98; N 3.79; Q 2.03; R 3.22; S 3.44; T 3.34; V 3.39; W 2.44; Y 2.75
G24: A 3.38; C 2.48; D 3.72; E 2.65; F 2.95; H 3.81; I 3.09; K 3.77; L 2.94; M 2.82; N 3.87; P 3.42; Q 3.37; R 3.07; S 3.22; T 3.51; V 2.68; W 2.47
